Source: the supplement of paper PMC10567573

B1: LPCAT4 (parent)
chain: HDPLYGKLFSTYLRPPHTSRGTSQ

Variants of: B1
Experiment: protein stability index of a GFP-peptide fusion (GPS, HEK-293T) (PSI 1-6); higher = more stable
Conditions: c terminus: a fixed tail appended
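Also: lentivirally expressed fusions sorted by FACS into six bins by GFP to DsRed ratio, PSI derived from sequencing read proportions per bin multiplied by bin number.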

Protein stability index of substitutions, site by site:
L4: P 3.28, Q 2.03, R 1.58, S 3.35, T 2.87, V 2.66, W 2.98, Y 2.69
Y5: A 2.94, C 3.69, D 3.92, E 3.67, F 2.47, G 2.76, H 2.98, I 2.69, K 3.43, L 3.05, M 3.11, N 2.85, P 3.65, Q 3.82, R 3.18, S 3.21, T 3.36, V 3.3, W 2.11
G6: A 1.77, C 2.17, D 3.61, E 3.19, F 1.58, H 1.88, I 1.6, K 1.73, L 2.18, M 1.7, N 2.08, P 3.46, Q 2.35, R 1.76, S 1.27, T 1.86, V 2.56, W 2.06, Y 2.42
K7: A 2.55, C 2.04, D 3.28, E 3.29, F 1.94, G 3.25, H 2, I 2.75, L 2.46, M 2.65, N 3.36, P 2.36, Q 3.12, R 2.46, S 2.58, T 3.43, V 2.68, W 1.96, Y 1.78
L8: A 4.59, C 4.01, D 4.88, E 4.85, F 2.15, G 4.66, H 4.44, I 3.25, K 3.91, M 3.73, N 4.19, P 4.26, Q 4.58, R 4.27, S 4.68, T 4.31, V 3.62, W 2.37, Y 2.58
F9: A 4.32, C 3.71, D 4.41, E 4.54, G 4.09, H 4.33, I 3.82, K 4.05, L 3.54, M 4.35, N 4.76, P 3.65, Q 4.37, R 4.13, S 4.74, T 4.12, V 4.24, W 2.43, Y 3.8
S10: A 2.96, C 1.97, D 4.06, E 4.21, F 1.96, G 3.34, H 3.8, I 2.49, K 3.46, L 2.96, M 2.72, N 3.97, P 4.13, Q 3.78, R 3.02, T 3.63, V 2.64, W 2.44, Y 1.67
T11: A 4.05, C 2.48, D 3.46, E 3.07, F 2.75, G 2.49, H 3.05, I 2.46, K 3.45, L 2.39, M 2.92, N 3.02, P 2.48, Q 3.43, R 2.94, S 2.63, V 2.24, W 2.77, Y 2.82
Y12: A 3.74, C 3.01, D 4.06, E 4.3, F 2.8, G 3.36, H 3.31, I 3.11, K 3.91, L 2.85, M 2.76, N 3.4, P 4.14, Q 3.53, R 3.76, S 3.97, T 3.95, V 2.92, W 2.53
L13: A 3.73, C 2.77, D 4.11, E 3.99, F 3.21, G 3.62, H 3.88
